The data set deals with the molecule itself. Nature of the data set: X-ray crystal structure of apo FAPα (SEQ ID NO:3), homodimer.

B1: FAPα (SEQ ID NO:3), secreted recombinant human fibroblast activation protein alpha, residues 27-760 of SEQ ID NO:1 with part of the gp67 signal sequence at the … (enzyme)
chain: ADPGRPSRVHNSEENTMRALTLKDILNGTFSYKTFFPNWISGQEYLHQSADNNIVLYNIETGQSYTILSNRTMKSVNASNYGLSPDRQFVYLESDYSKLWRYSYTATYYIYDLSNGEFVRGNELPRPIQYLCWSPVGSKLAYVYQNNIYLKQRPGDPPFQITFNGRENKIFNGIPDWVYEEEMLATKYALWWSPNGKFLAYAEFNDTDIPVIAYSYYGDEQYPRTINIPYPKAGAKNPVVRIFIIDTTYPAYVGPQEVPVPAMIASSDYYFSWLTWVTDERVCLQWLKRVQNVSVLSICDFREDWQTWDCPKTQEHIEESRTGWAGGFFVSTPVFSYDAISYYKIFSDKDGYKHIHYIKDTVENAIQITSGKWEAINIFRVTQDSLFYSSNEFEEYPGRRNIYRISIGSYPPSKKCVTCHLRKERCQYYTASFSDYAKYYALVCYGPGIPISTLHDGRTDQEIKILEENKELENALKNIQLPKEEIKKLEVDEITLWYKMILPPQFDRSKKYPLLIQVYGGPCSQSVRSVFAVNWISYLASKEGMVIALVDGRGTAFQGDKLLYAVYRKLGVYEVEDQITAVRKFIEMGFIDEKRIAIWGWSYGGYVSSLALASGTGLFKCGIAVAPVSSWEYYASVYTERFMGLPTKDDNLEHYKNSTVMARAEYFRNVDYLLIHGTADDNVHFQNSAQIAKALVNAQVDFQAMWYSDQNHGLSGLSTNHLYTHMTHFLKQCFSLSDHHHHHH
modifications: three Asn residues (chain A) or five Asn residues (chain B) carry covalently linked sugar molecules; positions not given
notes: Only residues 39-757 are seen in the structure; Expressed in Hi5 insect cells; also called Seprase; apo FAPα
In the case of B1, the binding result is “binds”.

(Values after US7297508 (Takeda / Millennium, dated 2007).)
